Read-outs that look alike come from different tables or passages of the source. Square brackets hold non-standard residues; d marks the D form. Ends that are not written are not given here. hArg = N=C(N)NCCCC[C@H](N)C(=O)O; Nle = CCCC[C@H](N)C(=O)O; Aib = CC(C)(N)C(=O)O
B1: [Aib^1,3,M]PTH(1-21) (peptide)
peptide: [Aib]V[Aib]EIQL[Nle]HQ[hArg]AKWLASVRRY-NH2
modifications: N-terminus assumed
SMILES: CCCC[C@H](NC(=O)[C@H](CC(C)C)NC(=O)[C@H](CCC(N)=O)NC(=O)[C@@H](NC(=O)[C@H](CCC(=O)O)NC(=O)C(C)(C)NC(=O)[C@@H](NC(=O)C(C)(C)N)C(C)C)[C@@H](C)CC)C(=O)N[C@@H](Cc1c[nH]cn1)C(=O)N[C@@H](CCC(N)=O)C(=O)N[C@@H](CCCCNC(=N)N)C(=O)N[C@@H](C)C(=O)N[C@@H](CCCCN)C(=O)N[C@@H](Cc1c[nH]c2ccccc12)C(=O)N[C@@H](CC(C)C)C(=O)N[C@@H](C)C(=O)N[C@@H](CO)C(=O)N[C@H](C(=O)N[C@@H](CCCNC(=N)N)C(=O)N[C@@H](CCCNC(=N)N)C(=O)N[C@@H](Cc1ccc(O)cc1)C(N)=O)C(C)C
notes: unlabeled peptide; also called 674 [Aib^1,3, M]PTH (1-21); 674 [Aib^1,3M]PTH(1-21)
B2: [Aib^1,3,M]PTH(1-14) (peptide)
peptide: [Aib]V[Aib]EIQLMHQ[hArg]AKW-NH2
modifications: N-terminus assumed
SMILES: CC[C@H](C)[C@H](NC(=O)[C@H](CCC(=O)O)NC(=O)C(C)(C)NC(=O)[C@@H](NC(=O)C(C)(C)N)C(C)C)C(=O)N[C@@H](CCC(N)=O)C(=O)N[C@@H](CC(C)C)C(=O)N[C@@H](CCSC)C(=O)N[C@@H](Cc1c[nH]cn1)C(=O)N[C@@H](CCC(N)=O)C(=O)N[C@@H](CCCCNC(=N)N)C(=O)N[C@@H](C)C(=O)N[C@@H](CCCCN)C(=O)N[C@@H](Cc1c[nH]c2ccccc12)C(N)=O
notes: also called 671 [Aib^1,3, M]PTH (1-14); 671 [Aib^1,3M]PTH(1-14)

Key:
[1] = molecular target: T1, wild-type human PTH/PTHrP receptor (hP1R-WT) (human, UniProt Q03431 27-593); test: competition binding, 125I-[M]PTH(1-21) tracer, HKRK-B28 cells, 4 h at 4 C
T1 construct: whole, on cells; HKRK-B28 cells express ~280,000 receptors per cell; also called PTH-1 receptor; PTH-1R
T1 sequence (looked up): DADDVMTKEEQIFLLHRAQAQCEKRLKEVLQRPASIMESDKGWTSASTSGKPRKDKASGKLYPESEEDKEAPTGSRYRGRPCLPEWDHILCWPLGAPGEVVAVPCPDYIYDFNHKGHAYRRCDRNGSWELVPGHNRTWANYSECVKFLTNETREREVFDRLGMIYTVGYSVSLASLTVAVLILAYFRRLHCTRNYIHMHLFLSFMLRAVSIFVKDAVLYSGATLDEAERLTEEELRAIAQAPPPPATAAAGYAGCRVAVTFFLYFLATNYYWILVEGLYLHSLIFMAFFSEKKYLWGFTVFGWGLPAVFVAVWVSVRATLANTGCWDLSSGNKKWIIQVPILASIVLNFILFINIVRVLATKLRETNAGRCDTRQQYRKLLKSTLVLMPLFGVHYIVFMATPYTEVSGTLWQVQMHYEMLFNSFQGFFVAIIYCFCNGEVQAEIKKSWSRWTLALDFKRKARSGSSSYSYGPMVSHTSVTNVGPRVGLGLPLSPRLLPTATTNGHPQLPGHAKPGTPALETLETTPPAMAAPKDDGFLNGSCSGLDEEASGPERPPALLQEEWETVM
Procedure, shortened: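 Cells are incubated with about 26 fmol ¹²⁵I-[M]PTH(1-21) tracer and unlabeled competitor in 300 μL for 4 h at 4 °C, then washed, lysed and counted. Nonspecific binding is defined with 1 μM of the same unlabeled peptide. IC50 values come from nonlinear regression, and the peptides are rat-PTH-based and C-terminally amidated.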

[2] = molecular target: T1, wild-type human PTH/PTHrP receptor …; test: cell-based or functional assay
[3] = molecular target: T2, truncated human P1R deleted for residues (24-181) (hP1R-delNt) (human, UniProt Q03431 182-593); test: cell-based or functional assay
T2 sequence (looked up): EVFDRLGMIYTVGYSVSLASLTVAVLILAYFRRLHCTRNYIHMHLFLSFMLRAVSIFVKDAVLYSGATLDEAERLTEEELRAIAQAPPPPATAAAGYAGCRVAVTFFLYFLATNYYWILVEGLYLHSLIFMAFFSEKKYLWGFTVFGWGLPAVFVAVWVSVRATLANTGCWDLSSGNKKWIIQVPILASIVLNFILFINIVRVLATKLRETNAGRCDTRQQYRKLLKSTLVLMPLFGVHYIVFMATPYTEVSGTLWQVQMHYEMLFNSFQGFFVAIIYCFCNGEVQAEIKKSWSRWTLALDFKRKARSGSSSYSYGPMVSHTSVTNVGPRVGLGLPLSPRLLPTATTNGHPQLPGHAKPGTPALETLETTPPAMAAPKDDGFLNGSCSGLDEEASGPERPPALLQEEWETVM

[4] = molecular target: T2, truncated human P1R deleted for …; test: competition binding, 125I-[Aib1,3,M]PTH(1-21) tracer, COS-7 cells expressing hP1R-delNt
Experimental: Stock solutions of EGTA/trypsin and antibiotics were from GIBCO; fetal bovine serum was from Hyclone Laboratories (Logan, Utah). […] All cells, in 24-well plates, were treated with fresh media and shifted to 33° C. for 12 to 24 h prior to assay.
Competition Binding. Binding reactions were performed with HKRK-B28 cells or in COS-7 cells in 24-well plates. The cells were rinsed with 0.5 mL of binding buffer, and then treated successively with 100 μL binding buffer, 100 μL of binding buffer containing various amounts of unlabeled competitor ligand, and 100 μL of binding buffer containing ca. 100,000 cpm of ¹²⁵I-[M]PTH(1-21) or ¹²⁵I-[Aib^{1,3},M]PTH(1-21)} (ca. 26 fmol; final volume=300 μL). Incubations were 4 to 6 h at 4° C., at which time near equilibrium conditions were attained. Cells were then placed on ice, the binding medium was removed, and the monolayer was rinsed three times with 0.5 mL of cold binding buffer. The cells were subsequently lysed with 0.5 mL […] NaOH and counted for radioactivity. For each tracer and in each experiment, the non-specific binding was determined as the radioactivity that bound in the presence of the same unlabeled peptide at a concentration of 1 μM, and was ˜1% of total radioactivity added for each tracer. The maximum specific binding (B₀) was the total radioactivity bound in the absence of competing ligand, corrected for nonspecific binding, and for each tracer, ranged from 8% to 20% of the total radioactivity added. Nonlinear regression was used to calculate binding IC₅₀ values (see below). Scatchard transformations of homologous competition binding data derived from studies with 26 fmol of ¹²⁵I-[Aib^{1,3},M]PTH(1-21) were employed for estimations of apparent equilibrium dissociation constant (kDapps) and total number of ligand binding sites (Bₘₐₓ), assuming a single class of binding sites and equal affinities of the iodinated and non iodinated ligand.

[5] = molecular target: T1, wild-type human PTH/PTHrP receptor …; test: cell-based or functional assay; remark: listed apart in the source
[6] = molecular target: T1, wild-type human PTH/PTHrP receptor …; test: cell-based or functional assay; remark: listed apart in the source

| Binder | IC50 [1] | cAMP EC50 [2] | cAMP EMax(obs.) [2] | cAMP EC50 [3] | cAMP EMax(obs.) [3] | IC50 [4] | cAMP EC50 [5] | cAMP EMax(obs.) [5] | PLC EC50 [2] | PLC EMAX(obs.) [2] | PLC EC50 [3] | PLC EMAX(obs.) [3] | cAMP EMAX(obs.) in SaOS-2 cells [6] |
| --- | --- | --- | --- | --- | --- | --- | --- | --- | --- | --- | --- | --- | --- |
| B1 | 31 nM | 0.8 nM | 300 pmole/well | 0.38 nM | 240 pmole/well | 27 nM | 4.3 nM | 284 pmole/well | – | – | – | – | – |
| B2 | 130 nM | 1.2 nM | 240 pmole/well | 0.73 nM | 250 pmole/well | 1600 nM | 1.1 nM | 278 pmole/well | 71 nM | 4.3 foldxbasal | 130 nM | 3.1 foldxbasal | 320 pmole/well |
